Data: patent US20140286972A1

Tests used:
[1] = target: IgE antibodies of a mixture of sera of patients allergic to P. judaica (human); experiment: ELISA inhibition, extract on solid phase, pooled sera preincubated with inhibitor
[2] = target: IgE antibodies of a mixture of sera of patients allergic to P. judaica (human); experiment: ELISA inhibition, extract on solid phase, pooled sera
[3] = target: IgE antibodies of a mixture of sera of patients allergic to P. judaica (human); experiment: ELISA inhibition, extract on solid phase, pooled sera; reference nPar j 1-Par j 2
[4] = target: IgE antibodies of a mixture of sera of patients allergic to P. judaica (human); experiment: ELISA inhibition, extract on solid phase, pooled sera; reference Q1

B1: chimeric protein Q3 (protein)
chain: MRGSHHHHHHGILPETCGTMVRALMPCLPFVQGKEKEPSKGLQIQTAMKTYSDIDGKLVSEVRSSKLPPIDVNMDCKTLGVVPRQPQLPVSLRHGPVTGPSDPAHKARLERPQIRVPPPAPEKAEFEEACGKVVQDIMPCLHFVKGEEKEPSKEDIIVRATKGISGIKNELVAEVPGTLPPITADFDCSKIQSTIFRGYY
[1]
  maximum degree of inhibition of IgE binding to P. judaica extract: 60%
[2]
  reduction of allergenicity (IgE-binding) against nPar j 1-Par j 2: 100%
[3]
  fold higher protein concentration than nPar j 1-Par j 2 for the same degree of inhibition: 10000 times

B2: chimeric protein Q1 (protein)
chain: MRGSHHHHHHGILQETCGTMVRALMPCLPFVQGKEKEPSKGCCSGAKRLDGETKTGPQRVHACECIQTAMKTYSDIDGKLVSEVPKHCGIVDSKLPPIDVNMDCKTLGVVPRQPQLPVSLRHGPVTGPSDPAHKARLERPQIRVPPPAPEKAEFEEACGKVVQDIMPCLHFVKGEEKEPSKECCSGTKKLSEEVKTTEQKREACKCIVRATKGISGIKNELVAEVPKKCDIKTTLPPITADFDCSKIQSTIFRGYY
[1]
  degree of inhibition of IgE binding to P. judaica extract: 50%
[3]
  fold more protein needed than nPar j 1-Par j 2: 500 times

B3: chimeric protein Q2 (protein)
chain: MRGSHHHHHHGILQETCGTMVRALMPCLPFVQGKEKEPSKGLQIQTAMKTYSDIDGKLVSEVPKHCGIVDSKLPPIDVNMDCKTLGVVPRQPQLPVSLRHGPVTGPSDPAHKARLERPQIRVPPPAPEKAEFEEACGKVVQDIMPCLHFVKGEEKEPSKEDIIVRATKGISGIKNELVAEVPKKCDIKTTLPPITADFDCSKIQSTIFRGYY
[1]
  maximum degree of inhibition of IgE binding to P. judaica extract: 60%
[4]
  fold less allergenic than the chimeric protein Q1: 20 times
[2]
  reduction of allergenicity (IgE-binding) against nPar j 1-Par j 2: 100%
[3]
  fold higher protein concentration than nPar j 1-Par j 2 for the same degree of inhibition: 10000 times
